Molecular target: T1, Hop2-R176A–Mnd1 mutant complex (mouse, UniProt O35047 1-217; Q8K396 1-205, R176A)
T1 sequence 1: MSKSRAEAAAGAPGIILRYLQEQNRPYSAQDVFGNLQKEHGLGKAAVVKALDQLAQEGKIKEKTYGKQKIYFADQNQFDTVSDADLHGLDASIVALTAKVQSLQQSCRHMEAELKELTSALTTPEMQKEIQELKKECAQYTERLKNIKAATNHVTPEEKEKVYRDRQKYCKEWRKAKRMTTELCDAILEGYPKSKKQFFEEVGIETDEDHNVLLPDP
T1 sequence 2: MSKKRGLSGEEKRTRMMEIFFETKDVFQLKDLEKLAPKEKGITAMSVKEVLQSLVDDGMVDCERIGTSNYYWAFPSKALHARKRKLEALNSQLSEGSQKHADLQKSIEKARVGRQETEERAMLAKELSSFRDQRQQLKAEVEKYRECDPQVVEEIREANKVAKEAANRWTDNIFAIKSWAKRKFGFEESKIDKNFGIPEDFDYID
Assay: pull-down

B1: Human DMC1 (natural protein)
chain: MKEDQVVAEEPGFQDEEESLFQDIDLLQKHGINVADIKKLKSVGICTIKGIQMTTRRALCNVKGLSEAKVDKIKEAANKLIEPGFLTAFEYSEKRKMVFHITTGSQEFDKLLGGGIESMAITEAFGEFRTGKTQLSHTLCVTAQLPGAGGYPGGKIIFIDTENTFRPDRLRDIADRFNVDHDAVLDNVLYARAYTSEHQMELLDYVAAKFHEEAGIFKLLIIDSIMALFRVDFSGRGELAERQQKLAQMLSRLQKISEEYNVAVFVTNQMTADPGATMTFQADPKKPIGGHILAHASTTRISLRKGRGELRIAKIYDSPEMPENEATFAITAGGIGDAKE
B1: binds.
